The term Km denotes the concentration of substrate that gives half-maximal velocity.

From ChEMBL document CHEMBL2074293, “Function and expression of multidrug resistance-associated protein family in human colon adenocarcinoma cells (Caco-2)” (J Pharmacol Exp Ther, 2000) come the findings set out here.

Substrate in data set [1]: C[C@]12CC[C@@H]3c4ccc(O)cc4CC[C@H]3[C@@H]1CC[C@@H]2O[C@@H]1O[C@H](C(=O)O)[C@@H](O)[C@H](O)[C@H]1O
Put plainly: (§1) TP_TRANSPORTER: uptake in brush-border membrane vesicle from Caco-2 cells. The class given is functional, cell membranes.

Substrate in data set [2]: N[C@@H](CCC(=O)N[C@H](CSc1ccc([N+](=O)[O-])cc1[N+](=O)[O-])C(=O)NCC(=O)O)C(=O)O
The data set is described as §1. The data set is classed as functional, cell membranes.

B1: ATP-binding cassette sub-family C member 2 (Homo sapiens) (protein)
chain: MLEKFCNSTFWNSSFLDSPEADLPLCFEQTVLVWIPLGYLWLLAPWQLLHVYKSRTKRSSTTKLYLAKQVFVGFLLILAAIELALVLTEDSGQATVPAVRYTNPSLYLGTWLLVLLIQYSRQWCVQKNSWFLSLFWILSILCGTFQFQTLIRTLLQGDNSNLAYSCLFFISYGFQILILIFSAFSENNESSNNPSSIASFLSSITYSWYDSIILKGYKRPLTLEDVWEVDEEMKTKTLVSKFETHMKRELQKARRALQRRQEKSSQQNSGARLPGLNKNQSQSQDALVLEDVEKKKKKSGTKKDVPKSWLMKALFKTFYMVLLKSFLLKLVNDIFTFVSPQLLKLLISFASDRDTYLWIGYLCAILLFTAALIQSFCLQCYFQLCFKLGVKVRTAIMASVYKKALTLSNLARKEYTVGETVNLMSVDAQKLMDVTNFMHMLWSSVLQIVLSIFFLWRELGPSVLAGVGVMVLVIPINAILSTKSKTIQVKNMKNKDKRLKIMNEILSGIKILKYFAWEPSFRDQVQNLRKKELKNLLAFSQLQCVVIFVFQLTPVLVSVVTFSVYVLVDSNNILDAQKAFTSITLFNILRFPLSMLPMMISSMLQASVSTERLEKYLGGDDLDTSAIRHDCNFDKAMQFSEASFTWEHDSEATVRDVNLDIMAGQLVAVIGPVGSGKSSLISAMLGEMENVHGHITIKGTTAYVPQQSWIQNGTIKDNILFGTEFNEKRYQQVLEACALLPDLEMLPGGDLAEIGEKGINLSGGQKQRISLARATYQNLDIYLLDDPLSAVDAHVGKHIFNKVLGPNGLLKGKTRLLVTHSMHFLPQVDEIVVLGNGTIVEKGSYSALLAKKGEFAKNLKTFLRHTGPEEEATVHDGSEEEDDDYGLISSVEEIPEDAASITMRRENSFRRTLSRSSRSNGRHLKSLRNSLKTRNVNSLKEDEELVKGQKLIKKEFIETGKVKFSIYLEYLQAIGLFSIFFIILAFVMNSVAFIGSNLWLSAWTSDSKIFNSTDYPASQRDMRVGVYGALGLAQGIFVFIAHFWSAFGFVHASNILHKQLLNNILRAPMRFFDTTPTGRIVNRFAGDISTVDDTLPQSLRSWITCFLGIISTLVMICMATPVFTIIVIPLGIIYVSVQMFYVSTSRQLRRLDSVTRSPIYSHFSETVSGLPVIRAFEHQQRFLKHNEVRIDTNQKCVFSWITSNRWLAIRLELVGNLTVFFSALMMVIYRDTLSGDTVGFVLSNALNITQTLNWLVRMTSEIETNIVAVERITEYTKVENEAPWVTDKRPPPDWPSKGKIQFNNYQVRYRPELDLVLRGITCDIGSMEKIGVVGRTGAGKSSLTNCLFRILEAAGGQIIIDGVDIASIGLHDLREKLTIIPQDPILFSGSLRMNLDPFNNYSDEEIWKALELAHLKSFVASLQLGLSHEVTEAGGNLSIGQRQLLCLGRALLRKSKILVLDEATAAVDLETDNLIQTTIQNEFAHCTVITIAHRLHTIMDSDKVMVLDNGKIIECGSPEELLQIPGPFYFMAKEAGIENVNSTKF
As to B1, the results for the Km in data set [1] and in data set [2] were 9.4 µM and 16.9 µM, respectively.
